Here are results for three molecules from PMC10667097, “Activity-based profiling of cullin–RING E3 networks by conformation-specific probes” (Nature Chemical Biology, 2023).

Assay [1] has as its target T1, neddylated CUL1 C-terminal region bound to RBX1 (Homo sapiens, UniProt Q13616;P62877;Q15843, L421E | V451E | V452K | Y455K, NEDD8 linked to a specific site in the WHB subdomain | C-terminus linked to the cullin (isopeptide)).
T1 construct: CUL1, human, C-terminal region residues 411-776 with solubilizing substitutions; RBX1, human; NEDD8, human, the conjugated form; also called neddylated CUL1–RBX1; source: neddylated in vitro; not shown: MBP, N-terminal, cleaved; GST, N-terminal, cleaved; copies: + +
Nature of the assay: ELISA; proteins (2 µg/ml) coated on 384-well MaxiSorp plates overnight at 4 °C; Fab titrated (Fig. 1c at 50 nM Fab); detected with anti-M13-HRP (phage) or anti-Kappa-HRP (protein); EC50 by nonlinear regression; the results call the Fabs phage-displayed, the methods give EC50 for purified Fab proteins. The conditions noted are these: both partners purified. In general terms: In an ELISA, binding on a coated surface is turned into a signal by an enzyme label.

Assay [2] deals with T2, neddylated CUL3 (endogenous) (human (endogenous in K562, 293T), UniProt Q13618;Q15843, NEDD8-modified | linked to the cullin).
T2 construct: CUL3, human; NEDD8, human, the conjugated form; also called NEDD8-linked CUL3; source: endogenous, K562 lysate; endogenous, 293T lysate
The assay is described as follows: co-IP; biotinylated Fab on streptavidin magnetic beads, K562 lysates (cells treated with DMSO, MLN4924 or CSN5i-3; N8-block), 45 min at 4 °C, immunoblotting. The conditions noted are these: one partner purified.

The target of assay [3] is T3, purified recombinant CUL3 modified by NEDD8 (band on the immunoblot) (Homo sapiens, UniProt Q13618;Q15843, NEDD8 linked to a specific site in the WHB subdomain | C-terminus linked to the cullin (isopeptide)).
T3 construct: CUL3, human; NEDD8, human, the conjugated form; Resolved by SDS-PAGE, so RBX1 is not in the band; also called neddylated CUL3–RBX1; source: recombinant, purified, neddylated in vitro; not shown: GST, N-terminal, cleaved
The assay is described as follows: far-Western, overlay or dot blot; 200 ng neddylated or unneddylated recombinant CUL1-5 after SDS-PAGE on PVDF; 2 µg/ml biotinylated Fab as primary binder, Streptavidin-HRP. The following applies: both partners purified.

Assay [4] concerns the target T4, neddylated CUL2 (endogenous) (human (endogenous in 293T), UniProt Q13617;Q15843, NEDD8-modified | linked to the cullin).
T4 construct: CUL2, human; NEDD8, human, the conjugated form; also called NEDD8-linked CUL2; source: endogenous, 293T lysate
Nature of the assay: affinity purification with mass spectrometry; IPs with biotinylated N8C_Fab3b on streptavidin beads from lysates of human cells (293T, K562, panel of ten lines), N8-block; cells treated with DMSO, MLN4924, CSN5i-3, Indisulam, MZ1, ferric ammonium citrate or TNF (with MG132 and CB-5083 before stimuli); DIA MS. The conditions noted are these: one partner purified.

T2 sequence (Q13618 whole entry, chain 1 of 2): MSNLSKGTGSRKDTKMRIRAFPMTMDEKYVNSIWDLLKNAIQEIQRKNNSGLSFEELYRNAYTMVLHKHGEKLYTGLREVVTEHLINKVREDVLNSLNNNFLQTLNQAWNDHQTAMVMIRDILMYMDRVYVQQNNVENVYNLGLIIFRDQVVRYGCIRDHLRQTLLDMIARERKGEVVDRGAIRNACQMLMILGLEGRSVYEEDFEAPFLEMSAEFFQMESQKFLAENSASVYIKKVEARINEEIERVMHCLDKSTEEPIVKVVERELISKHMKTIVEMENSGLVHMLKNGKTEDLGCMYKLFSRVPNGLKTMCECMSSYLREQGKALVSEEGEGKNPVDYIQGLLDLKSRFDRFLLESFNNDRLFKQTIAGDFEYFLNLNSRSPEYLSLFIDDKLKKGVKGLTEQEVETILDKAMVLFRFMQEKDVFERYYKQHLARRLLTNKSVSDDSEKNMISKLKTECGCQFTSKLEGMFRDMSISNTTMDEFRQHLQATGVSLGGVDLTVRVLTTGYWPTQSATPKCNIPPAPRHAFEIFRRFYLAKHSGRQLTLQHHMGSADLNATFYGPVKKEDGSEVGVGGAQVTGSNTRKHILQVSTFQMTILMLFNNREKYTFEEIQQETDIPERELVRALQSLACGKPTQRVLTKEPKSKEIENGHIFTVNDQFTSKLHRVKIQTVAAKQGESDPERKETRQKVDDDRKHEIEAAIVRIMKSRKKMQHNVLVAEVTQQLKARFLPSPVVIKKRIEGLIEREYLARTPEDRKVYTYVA
T2 sequence (Q15843 1-76, chain 2 of 2): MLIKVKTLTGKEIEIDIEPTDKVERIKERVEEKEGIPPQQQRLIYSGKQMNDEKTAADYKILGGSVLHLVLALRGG
T3 sequence (Q13618 whole entry, chain 1 of 2): as the sequence (Q13618 whole entry, chain 1 of 2) above
T3 sequence (Q15843 1-76, chain 2 of 2): as the sequence (Q15843 1-76, chain 2 of 2) above
T4 sequence (Q13617 whole entry, chain 1 of 2): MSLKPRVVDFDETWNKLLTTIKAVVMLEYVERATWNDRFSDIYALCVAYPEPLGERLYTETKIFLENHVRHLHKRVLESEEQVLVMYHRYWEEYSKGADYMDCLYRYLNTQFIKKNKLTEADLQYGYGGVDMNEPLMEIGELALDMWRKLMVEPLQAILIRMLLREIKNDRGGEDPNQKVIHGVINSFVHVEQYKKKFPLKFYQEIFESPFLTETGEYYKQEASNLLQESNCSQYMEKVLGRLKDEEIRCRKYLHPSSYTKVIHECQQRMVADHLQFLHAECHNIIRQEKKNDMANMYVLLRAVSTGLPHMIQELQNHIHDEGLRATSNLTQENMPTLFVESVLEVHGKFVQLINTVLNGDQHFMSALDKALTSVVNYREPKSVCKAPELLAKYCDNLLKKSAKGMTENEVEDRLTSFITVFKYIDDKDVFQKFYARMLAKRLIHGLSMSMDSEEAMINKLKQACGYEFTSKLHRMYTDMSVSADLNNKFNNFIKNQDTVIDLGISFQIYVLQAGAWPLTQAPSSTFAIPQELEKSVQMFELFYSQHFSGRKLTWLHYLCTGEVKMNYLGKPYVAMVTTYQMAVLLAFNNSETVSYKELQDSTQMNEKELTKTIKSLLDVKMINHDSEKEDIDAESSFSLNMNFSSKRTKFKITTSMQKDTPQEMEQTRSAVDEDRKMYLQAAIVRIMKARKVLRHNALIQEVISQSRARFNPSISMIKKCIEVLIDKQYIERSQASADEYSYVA
T4 sequence (Q15843 1-76, chain 2 of 2): as the sequence (Q15843 1-76, chain 2 of 2) above
T1 sequence (Q13616 411-776 L421E/V451E/V452K/Y455K, chain 1 of 3): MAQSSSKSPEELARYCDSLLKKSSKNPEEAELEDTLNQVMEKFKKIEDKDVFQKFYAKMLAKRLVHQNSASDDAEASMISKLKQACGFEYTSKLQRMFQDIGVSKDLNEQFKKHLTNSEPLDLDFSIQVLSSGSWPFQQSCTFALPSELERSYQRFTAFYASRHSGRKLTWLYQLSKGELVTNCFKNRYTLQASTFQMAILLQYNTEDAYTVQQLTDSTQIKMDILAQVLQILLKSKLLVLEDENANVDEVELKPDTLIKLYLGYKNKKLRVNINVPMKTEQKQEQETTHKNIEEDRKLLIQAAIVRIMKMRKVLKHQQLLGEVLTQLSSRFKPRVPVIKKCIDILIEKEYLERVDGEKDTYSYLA
T1 sequence (P62877 whole entry, chain 2 of 3, the tested form may be a part): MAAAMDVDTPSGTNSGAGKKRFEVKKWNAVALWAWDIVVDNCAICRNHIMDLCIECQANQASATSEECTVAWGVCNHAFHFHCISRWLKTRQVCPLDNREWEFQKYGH
T1 sequence (Q15843 1-76, chain 3 of 3): as the sequence (Q15843 1-76, chain 2 of 2) above

B1: N8C_Fab4a (Fab, V domains shown)
VH: EVQLVESGGGLVQPGGSLRLSCAASGFNLSYYSMHWVRQAPGKGLEWVASISPYYSYTYYADSVKGRFTISADTSKNTAYLQMNSLRAEDTAVYYCARSHWASYYAGAFDYWGQGTLVTVSS
VL: DIQMTQSPSSLSASVGDRVTITCRASQSVSSAVAWYQQKPGKAPKLLIYSASSLYSGVPSRFSGSRSGTDFTLTISSLQPEDFATYYCQQGYAFWHPITFGQGTKVEIK
Turning to B1, in assay [1], the “fold higher EC50 than N8C_Fab1b” value is ~3 fold.

B2: N8C_Fab4a, biotinylated (Fab, V domains shown)
VH: EVQLVESGGGLVQPGGSLRLSCAASGFNLSYYSMHWVRQAPGKGLEWVASISPYYSYTYYADSVKGRFTISADTSKNTAYLQMNSLRAEDTAVYYCARSHWASYYAGAFDYWGQGTLVTVSS
VL: DIQMTQSPSSLSASVGDRVTITCRASQSVSSAVAWYQQKPGKAPKLLIYSASSLYSGVPSRFSGSRSGTDFTLTISSLQPEDFATYYCQQGYAFWHPITFGQGTKVEIK
notes: as the heavy chain of m6; as the light chain of m6; GS linker between the heavy chain and the AviTag-His6 tag; source: E. coli Rosetta (DE3), purified, biotinylated in vitro with BirA; not shown: AviTag, C-terminal, kept
With B2, the binding result in assay [2] and in assay [3] was “binds” each time.

B3: N8C_Fab3b, biotinylated (Fab, V domains shown)
VH: EVQLVESGGGLVQPGGSLRLSCAASGFNFSSSSIHWVRQAPGKGLEWVASISSSYGYTYYADSVKGRFTISADTSKNTAYLQMNSLRAEDTAVYYCARDPFGWAAHGVGLDYWGQGTLVTVSS
VL: DIQMTQSPSSLSASVGDRVTITCRASQSVSSAVAWYQQKPGKAPKLLIYSASSLYSGVPSRFSGSRSGTDFTLTISSLQPEDFATYYCQQSSYSLITFGQGTKVEIK
notes: as the heavy chain of m5; as the light chain of m5; GS linker between the heavy chain and the AviTag-His6 tag; Held on streptavidin beads in the IPs; source: E. coli Rosetta (DE3), purified, biotinylated in vitro with BirA; not shown: AviTag, C-terminal, kept
As for B3, the binding result in assay [2] and in assay [4] was “binds” in each case.
